According to paper PMC10641296 (2023):
Several values for one entry are separate records, joined by “and”; a condition that tells them apart may be missing. Equal entries are not always repeated.

Legend:
[1] = biological target: recombinant histidine-tagged SCM-2 of S. canis strain IMT40096 (Streptococcus canis); experiment: SPR
[2] = biological target: recombinant histidine-tagged SCM-2 of S. canis strain IMT42870 (Streptococcus canis); experiment: SPR

B1: human fibrinogen (complex)
chain 1: GPRVVERHQSACKDSDWPFCSDEDWNYKCPSGCRMKGLIDEVNQDFTNRINKLKNSLFEYQKNNKDSHSLTTNIMEILRGDFSSANNRDNTYNRVSEDLRSRIEVLKRKVIEKVQHIQLLQKNVRAQLVDMKRLEVDIDIKIRSCRGSCSRALAREVDLKDYEDQQKQLEQVIAKDLLPSRDRQHLPLIKMKPVPDLVPGNFKSQLQKVPPEWKALTDMPQMRMELERPGGNEITRGGSTSYGTGSETESPRNPSSAGSWNSGSSGPGSTGNRNPGSSGTGGTATWKPGSSGPGSTGSWNSGSSGTGSTGNQNPGSPRPGSTGTWNPGSSERGSAGHWTSESSVSGSTGQWHSESGSFRPDSPGSGNARPNNPDWGTFEEVSGNVSPGTRREYHTEKLVTSKGDKELRTGKEKVTSGSTTTTRRSCSKTVTKTVIGPDGHKEVTKEVVTSEDGSDCPEAMDLGTLSGIGTLDGFRHRHPDEAAFFDTASTGKTFPGFFSPMLGEFVSETESRGSESGIFTNTKESSSHHPGIAEFPSRGKSSSYSKQFTSSTSYNRGDSTFESKSYKMADEAGSEADHEGTHSTKRGHAKSRPVRDCDDVLQTHPSGTQSGIFNIKLPGSSKIFSVYCDQETSLGGWLLIQQRMDGSLNFNRTWQDYKRGFGSLNDEGEGEFWLGNDYLHLLTQRGSVLRVELEDWAGNEAYAEYHFRVGSEAEGYALQVSSYEGTAGDALIEGSVEEGAEYTSHNNMQFSTFDRDADQWEENCAEVYGGGWWYNNCQAANLNGIYYPGGSYDPRNNSPYEIENGVVWVSFRGADYSLRAVRMKIRPLVTQ
chain 2: GHRPLDKKREEAPSLRPAPPPISGGGYRARPAKAAATQKKVERKAPDAGGCLHADPDLGVLCPTGCQLQEALLQQERPIRNSVDELNNNVEAVSQTSSSSFQYMYLLKDLWQKRQKQVKDNENVVNEYSSELEKHQLYIDETVNSNIPTNLRVLRSILENLRSKIQKLESDVSAQMEYCRTPCTVSCNIPVVSGKECEEIIRKGGETSEMYLIQPDSSVKPYRVYCDMNTENGGWTVIQNRQDGSVDFGRKWDPYKQGFGNVATNTDGKNYCGLPGEYWLGNDKISQLTRMGPTELLIEMEDWKGDKVKAHYGGFTVQNEANKYQISVNKYRGTAGNALMDGASQLMGENRTMTIHNGMFFSTYDRDNDGWLTSDPRKQCSKEDGGGWWYNRCHAANPNGRYYWGGQYTWDMAKHGTDDGVVWMNWKGSWYSMRKMSMKIRPFFPQQ
chain 3: YVATRDNCCILDERFGSYCPTTCGIADFLSTYQTKVDKDLQSLEDILHQVENKTSEVKQLIKAIQLTYNPDESSKPNMIDAATLKSRKMLEEIMKYEASILTHDSSIRYLQEIYNSNNQKIVNLKEKVAQLEAQCQEPCKDTVQIHDITGKDCQDIANKGAKQSGLYFIKPLKANQQFLVYCEIDGSGNGWTVFQKRLDGSVDFKKNWIQYKEGFGHLSPTGTTEFWLGNEKIHLISTQSAIPYALRVELEDWNGRTSTADYAMFKVGPEADKYRLTYAYFAGGDAGDAFDGFDFGDDPSDKFFTSHNGMQFSTWDNDNDKFEGNCAEQDGSGWWMNKCHAGHLNGVYYQGGTYSKASTPNGYDNGIIWATWKTRWYSMKKTTMKIIPFNRLTIGEGQQHHLGGAKQVRPEHPAETEYDSLYPEDDL
**Q.** How did the Kd [1] turn out when B1 was run?
**A.** 15.5 nM and 14.3 nM and 15.1 nM

**Q.** And the koff [1]?
**A.** 0.000922 s⁻¹ and 0.000948 s⁻¹ and 0.000989 s⁻¹

**Q.** And the Kd [2]?
**A.** 177 nM and 188 nM and 208 nM

**Q.** What about the koff [2] of the same binder?
**A.** 0.00271 s⁻¹ and 0.0024 s⁻¹ and 0.00216 s⁻¹
